Source: patent US20250002588A1 (DIAGONAL THERAPEUTICS, published 2025)
Residue numbers refer to the chain shown, from its start. Read-outs that look alike come from different tables or passages of the source.

T1: human BMPRII protein (Sino Biological, #10551-H08H) (human, UniProt Q13873 27-150)
T1 sequence (looked up): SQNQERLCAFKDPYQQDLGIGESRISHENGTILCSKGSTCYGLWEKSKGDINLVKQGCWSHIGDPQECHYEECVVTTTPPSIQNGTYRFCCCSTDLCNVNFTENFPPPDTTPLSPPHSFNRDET

B1: DGL633 (bispecific antibody)
chain 1: not shown
chain 2: EVQLLESGGGLVQPGGSLRLSCAASGFTFSNAWMNWVRQAPGKGLEWVSSISSSSSYIYYADSVKGRFTISRDNSKNTLYLQMNSLRAEDTAVYYCARAVAAGGMFWGLDQWGQGTLVTVTSSGGGGSGGGGSGGGGSQSVLTQPPSASGTPGQRVTISCSGSRSNIGSNSVHWYQQLPGTAPKLLIYGNSNRPSGVPDRFSGSKSGTSASLAISGLRSEDEADYYCQSYDSSLNDHVVFGGGTKLTVLDKTHTCPPCPAPEAAGAPSVFLFPPKPKDTLMISRTPEVTCVVVDVSHEDPEVKFNWYVDGVEVHNAKTKPREEQYNSTYRVVSVLTVLHQDWLNGKEYKCKVSNKALPAPIEKTISKAKGQPREPQVCTLPPSRDELTKNQVSLSCAVKGFYPSDIAVEWESNGQPENNYKTTPPVLDSDGSFFLVSKLTVDKSRWQQGNVFSCSVMHEALHNHYTQKSLSLSPGWSHPQFEK
B2: DGL641 (bispecific antibody)
chain 1: B1 chain 2
chain 2: not shown
B3: DGL647 (bispecific antibody)
chain 1: B1 chain 2 with M105F
chain 2: not shown
B4: DGL648 (bispecific antibody)
chain 1: B1 chain 2 with M105L
chain 2: not shown
B5: DGL644 (bispecific antibody)
chain 1: B1 chain 2 with A99S, V100N, A101G, A102S, M105S, F106T, W107S, G108P, Q111L
chain 2: not shown
B6: DGL649 (bispecific antibody)
chain 1: B1 chain 2 with N31L, S55T
chain 2: not shown
B7: DGL645 (bispecific antibody)
chain 1: B1 chain 2 with A102G, G103T, G104S, F106W, W107Y
chain 2: not shown
B8: DGL635 (bispecific antibody)
chain 1: EVQLLESGGGLVQPGGSLRLSCAASGFTFSDYYMTWIRQAPGKGLEWVSSISGGSTYYADSRKGRFTISRDNSENTLYLQMNSLRAEDTAVYYCARDFGVAGWFGQYGMDVWGQGTLVTVSSGGGGSGGGGSGGGGSQSVLTQPPSASGTPGQRVTISCTGSSSNIGAGYDVHWYQQLPGTAPKLLIYRSNQRPSGVPDRFSGSKSGTSASLAISGLRSEDEADYYCSSYAGNYNLVFGGGTKLTVLDKTHTCPPCPAPEAAGAPSVFLFPPKPKDTLMISRTPEVTCVVVDVSHEDPEVKFNWYVDGVEVHNAKTKPREEQYNSTYRVVSVLTVLHQDWLNGKEYKCKVSNKALPAPIEKTISKAKGQPREPQVCTLPPSRDELTKNQVSLSCAVKGFYPSDIAVEWESNGQPENNYKTTPPVLDSDGSFFLVSKLTVDKSRWQQGNVFSCSVMHEALHNHYTQKSLSLSPGWSHPQFEK
chain 2: not shown
B9: DGL878 (bispecific antibody)
chain 1: not shown
chain 2: B8 chain 1 with S195A
B10: DGL877 (bispecific antibody)
chain 1: not shown
chain 2: B8 chain 1 with S163A
B11: DGL872 (bispecific antibody)
chain 1: not shown
chain 2: B8 chain 1
B12: DGL875 (bispecific antibody)
chain 1: not shown
chain 2: B8 chain 1
B13: DGL876 (bispecific antibody)
chain 1: not shown
chain 2: B8 chain 1
B14: DGL871 (bispecific antibody)
chain 1: not shown
chain 2: B8 chain 1
B15: DGL869 (bispecific antibody)
chain 1: not shown
chain 2: B8 chain 1
B16: DGL870 (bispecific antibody)
chain 1: not shown
chain 2: B8 chain 1
B17: DGL874 (bispecific antibody)
chain 1: not shown
chain 2: B8 chain 1
B18: DGL880 (bispecific antibody)
chain 1: not shown
chain 2: B8 chain 1 with S163A, S195A, N233L
B19: DGL873 (bispecific antibody)
chain 1: not shown
chain 2: B8 chain 1
B20: DGL879 (bispecific antibody)
chain 1: not shown
chain 2: B8 chain 1 with N233L

Key:
[1] = biological target: T2, ALK-1/BMPR-2 receptor pair of the PathHunter U2Os dimerization cells (DiscoverX 93-0962C3) (UniProt P37023 22-503; Q13873 27-1038); experiment: cell-based or functional assay
[2] = biological target: human ALK1 protein (Sino Biological, #10066-H08H) (human, UniProt P37023 22-118); experiment: ELISA, coated human ALK1
Experimental: (§1) These binders were then tested using an ELISA assay. High binding plates (Corning, 9018) were coated with either 2 μg/ml of human BMPRII protein (Sino Biological, #10551-H08H) or 2 μg/ml of human ALK1 protein (Sino Biological, #10066-H08H) overnight at 4C. The plates were then washed three times with wash buffer (R&D Systems, WA126). […] The plates were then washed three times with wash buffer and DGL antibodies or controls, which were diluted with PBS and 0.1% BSA. The antibodies were incubated for one hour at room temperature and then the plates were washed three times with wash buffer. The plates were then incubated with mouse anti-human IgG Fc secondary—HRP (diluted with PBS/0.1% BSA); 100 ul per well at 2 μg/ml and incubated at room temperature for one hour. The plate was washed three times in wash buffer and then 100 ul TMB (R&D Systems, DY9998B, substrate reagent pack). After the wells turn blue, 50 ul of stop solution (R&D Systems, DY994) was added to each well and the absorbance of the plate was read at 450 nm. results can be found in Table 8.

[3] = biological target: T1, human BMPRII protein (Sino Biological, …); experiment: ELISA, coated human BMPRII
Experimental: as §1

[4] = biological target: T2, ALK-1/BMPR-2 receptor pair of the …; experiment: cell-based or functional assay; remark: listed apart in the source

Sequence of human ALK1 protein (Sino Biological, #10066-H08H) (P37023 22-118 limits assumed): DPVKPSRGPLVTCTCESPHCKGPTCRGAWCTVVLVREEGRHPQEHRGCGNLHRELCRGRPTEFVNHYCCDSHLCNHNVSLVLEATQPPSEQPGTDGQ

Binder | % Emax BMP9 [1] | Emax (RLU) [1] | Abs450 1 nM [2] | Abs450 10 nM [2] | Abs450 100 nM [2] | Abs450 1 nM [3] | Abs450 10 nM [3] | Abs450 100 nM [3] | % Emax BMP9 [4] | Emax (RLU) [4]
B1 | 32% | 586000 RLU | 0.15 | 0.78 | 1.42 | 0.12 | 0.14 | 0.37 |  | 
B2 | 76% | 1.41e+06 RLU | 0.07 | 0.15 | 0.83 | 0.33 | 0.43 | 0.9 |  | 
B3 | 79% | 1.46e+06 RLU | 0.07 | 0.16 | 0.84 | 0.25 | 0.51 | 1.9 |  | 
B4 | 78% | 1.45e+06 RLU | 0.08 | 0.17 | 0.8 | 0.24 | 0.33 | 0.77 |  | 
B5 | 8% | 153000 RLU | 0.06 | 0.1 | 0.54 | 0.23 | 0.2 | 0.17 |  | 
B6 | 35% | 648000 RLU | 0.07 | 0.18 | 0.81 | 0.3 | 0.32 | 0.76 |  | 
B7 | 19% | 353000 RLU | 0.07 | 0.13 | 0.59 | 0.23 | 0.21 | 0.16 |  | 
B8 | 141% | 2.61e+06 RLU | 0.09 | 0.29 | 1.17 | 0.15 | 0.33 | 1.17 |  | 
B9 |  |  |  |  |  |  |  |  | 73% | 1.88e+06 RLU
B10 |  |  |  |  |  |  |  |  | 76% | 1.95e+06 RLU
B11 |  |  |  |  |  |  |  |  | 57% | 1.46e+06 RLU
B12 |  |  |  |  |  |  |  |  | 65% | 1.66e+06 RLU
B13 |  |  |  |  |  |  |  |  | 61% | 1.57e+06 RLU
B14 |  |  |  |  |  |  |  |  | 62% | 1.59e+06 RLU
B15 |  |  |  |  |  |  |  |  | 56% | 1.44e+06 RLU
B16 |  |  |  |  |  |  |  |  | 56% | 1.42e+06 RLU
B17 |  |  |  |  |  |  |  |  | 61% | 1.56e+06 RLU
B18 |  |  |  |  |  |  |  |  | 66% | 1.68e+06 RLU
B19 |  |  |  |  |  |  |  |  | 60% | 1.55e+06 RLU
B20 |  |  |  |  |  |  |  |  | 71% | 1.81e+06 RLU
